Data set [1] can be described thus: Stability: remaining activity of recombinant versus native Dm-kinase after incubation at 37° C. The class given is physicochemical. How it is done: The activity of the recombinant Dm-kinase compared to native, isolated Dm-kinase was determined. After different periods of incubation in 50 mM Tris 7.5+2.5 mM MgCl2 at 37° C. the remaining activity was determined.

Data set [2] can be described thus: Activity of the kinase from D. Melanogaster at different temperatures. Particulars: wide optimum. The class given is biochemical. How it is done: The activity of the Dm-nucleoside kinase was determined at different temperatures. […] (see FIG. 6).
The activity test is described in reference No. 14.

Data set [3] can be described thus: Kinetic constants of the Drosophila kinase compared to known analogous enzymes. Type of data set: biochemical. Particulars: versus hitherto known kinases, Kc values. An excerpt: Furthermore, […]; as a consequence, for the synthesis of the individual nucleosides it is no more necessary to have the corresponding specific kinase. Particularly advantageous is the low specificity for the synthesis of modified nucleoside analogues, such as dideoxynucleosides or base- or sugar-modified nucleosides. Base-modified nucleosides are for example 7-deaza-nucleosides, C-nucleosides and nucleotides labelled with reporter groups (dye, digoxigenin, biotin) at the base. Sugar-modified nucleosides are for example azathymidine, arabinosyl-thymidine. The specific activity kc of the kinase according to the invention is several times higher than that of the kinases known before. The activity of the enzyme was measured as described in the reference: Munch-Peterson et al. (1991) J. Biol. Chem. 266, 9032-9038. By this, a considerably lower amount of enzyme is necessary to synthesize the dNMPs. (factor 3.5-14000, cf. Kc values in table 1). The specificity constant (kc/KM) of the kinase according to the invention exceeds that of the hitherto known kinases by several powers and is in the region of the diffusion constant. This leads to the complete yield when the kinase is added to the d-NMP synthesis. They are higher by factor 2-6500 than the hitherto known kinases, s. FIG. 1. […]

B1: recombinant Dm-kinase: recombinant multifunctional deoxynucleoside kinase from Drosophila Melanogaster, expressed in E. coli (protein, UniProt Q9XZT6 1-250, looked up)
Deoxynucleoside kinase: MAEAASCARKGTKYAEGTQPFTVLIEGNIGSGKTTYLNHFEKYKNDICLLTEPVEKWRNVNGVNLLELMYKDPKKWAMPFQSYVTLTMLQSHTAPTNKKLKIMERSIFSARYCFVENMRRNGSLEQGMYNTLEEWYKFIEESIHVQADLIIYLRTSPEVAYERIRQRARSEESCVPLKYLQELHELHEDWLIHQRRPQSCKVLVLDADLNLENIGTEYQRSESSIFDAISSNQQPSPVLVSPSKRQRVAR
Turning to B1, the “stability (remaining activity)” value in data set [1] (50 mM Tris 7.5+2.5 mM MgCl2, 37° C., without addition of BSA) is “remains stable”. For the same molecule, the half-life in data set [1] (Tris buffer in the presence of MgCl2, 37° C.) came out at 50 h; in data set [1] (Tris buffer without MgCl2, 37° C.) it was 31 h; in data set [1] (pure water) it was 28 h. For the same molecule, the “temperature of maximum activity” value in data set [2] was 60 °C. Also, the “factor by which specific activity kc exceeds known kinases (lower amount of enzyme necessary)” value in data set [3] is reported as 3.5-14000.

B2: native Dm-kinase: native, isolated deoxynucleoside kinase from Drosophila Melanogaster, used for comparison (protein, UniProt Q9XZT6 1-250, looked up)
Deoxynucleoside kinase: MAEAASCARKGTKYAEGTQPFTVLIEGNIGSGKTTYLNHFEKYKNDICLLTEPVEKWRNVNGVNLLELMYKDPKKWAMPFQSYVTLTMLQSHTAPTNKKLKIMERSIFSARYCFVENMRRNGSLEQGMYNTLEEWYKFIEESIHVQADLIIYLRTSPEVAYERIRQRARSEESCVPLKYLQELHELHEDWLIHQRRPQSCKVLVLDADLNLENIGTEYQRSESSIFDAISSNQQPSPVLVSPSKRQRVAR
In the case of B2, the “stability (remaining activity)” value in data set [1] (50 mM Tris 7.5+2.5 mM MgCl2, 37° C., with 2.5 mg/ml BSA) was “remains stable”. For the same molecule, in data set [1] (under the same conditions), the half-life was less than 0.2 h. For the same molecule, the remaining activity in data set [1] (within 50 min, 50 mM Tris 7.5+2.5 mM MgCl2, 37° C., without BSA) is less than 20%.

As a reminder, the half-life is the time in which the quantity being followed falls by half. A word on the remaining activity: it is the signal under treatment as a percentage of the control signal.

Source of the values: US7625735B2, “Recombinant kinase from insect cells for the synthesis of nucleoside monophosphates” (Roche Diagnostic Operations, Inc., priority 1998, dated 2009).
